B1: Compound 56 (peptide)
peptide: Ac-EGSAFCI[1Nal]QDWGEHRCTE-NH2
modifications: disulfide 6-16
SMILES: CC[C@H](C)[C@@H]1NC(=O)[C@@H](NC(=O)[C@H](Cc2ccccc2)NC(=O)[C@H](C)NC(=O)[C@H](CO)NC(=O)CNC(=O)[C@H](CCC(=O)O)NC(C)=O)CSSC[C@@H](C(=O)N[C@H](C(=O)N[C@@H](CCC(=O)O)C(N)=O)[C@@H](C)O)NC(=O)[C@H](CCCNC(=N)N)NC(=O)[C@H](Cc2c[nH]cn2)NC(=O)[C@H](CCC(=O)O)NC(=O)CNC(=O)[C@H](Cc2c[nH]c3ccccc23)NC(=O)[C@H](CC(=O)O)NC(=O)[C@H](CCC(N)=O)NC(=O)[C@H](Cc2cccc3ccccc23)NC1=O
B2: Compound 60 (peptide)
peptide: Ac-EGSAFCI[2Nal]QDWGEHRCTE-NH2
modifications: disulfide 6-16
SMILES: CC[C@H](C)[C@@H]1NC(=O)[C@@H](NC(=O)[C@H](Cc2ccccc2)NC(=O)[C@H](C)NC(=O)[C@H](CO)NC(=O)CNC(=O)[C@H](CCC(=O)O)NC(C)=O)CSSC[C@@H](C(=O)N[C@H](C(=O)N[C@@H](CCC(=O)O)C(N)=O)[C@@H](C)O)NC(=O)[C@H](CCCNC(=N)N)NC(=O)[C@H](Cc2c[nH]cn2)NC(=O)[C@H](CCC(=O)O)NC(=O)CNC(=O)[C@H](Cc2c[nH]c3ccccc23)NC(=O)[C@H](CC(=O)O)NC(=O)[C@H](CCC(N)=O)NC(=O)[C@H](Cc2ccc3ccccc3c2)NC1=O
B3: Compound 62 (peptide)
peptide: Ac-YCI[Trp(1-Me)]QDWGEHRCTGAES-NH2
modifications: disulfide 2-12
SMILES: CC[C@H](C)[C@@H]1NC(=O)[C@@H](NC(=O)[C@H](Cc2ccc(O)cc2)NC(C)=O)CSSC[C@@H](C(=O)N[C@H](C(=O)NCC(=O)N[C@@H](C)C(=O)N[C@@H](CCC(=O)O)C(=O)N[C@@H](CO)C(N)=O)[C@@H](C)O)NC(=O)[C@H](CCCNC(=N)N)NC(=O)[C@H](Cc2c[nH]cn2)NC(=O)[C@H](CCC(=O)O)NC(=O)CNC(=O)[C@H](Cc2c[nH]c3ccccc23)NC(=O)[C@H](CC(=O)O)NC(=O)[C@H](CCC(N)=O)NC(=O)[C@H](Cc2cn(C)c3ccccc23)NC1=O
B4: Compound 55 (peptide)
peptide: Ac-EGSAICIWQDWGEHRCTE-NH2
modifications: disulfide 6-16
SMILES: CC[C@H](C)[C@H](NC(=O)[C@H](C)NC(=O)[C@H](CO)NC(=O)CNC(=O)[C@H](CCC(=O)O)NC(C)=O)C(=O)N[C@H]1CSSC[C@@H](C(=O)N[C@H](C(=O)N[C@@H](CCC(=O)O)C(N)=O)[C@@H](C)O)NC(=O)[C@H](CCCNC(=N)N)NC(=O)[C@H](Cc2c[nH]cn2)NC(=O)[C@H](CCC(=O)O)NC(=O)CNC(=O)[C@H](Cc2c[nH]c3ccccc23)NC(=O)[C@H](CC(=O)O)NC(=O)[C@H](CCC(N)=O)NC(=O)[C@H](Cc2c[nH]c3ccccc23)NC(=O)[C@H]([C@@H](C)CC)NC1=O
B5: Compound 65 (peptide)
peptide: Ac-YCI[2Nal]QDWGEHRCTGAES-NH2
modifications: disulfide 2-12
SMILES: CC[C@H](C)[C@@H]1NC(=O)[C@@H](NC(=O)[C@H](Cc2ccc(O)cc2)NC(C)=O)CSSC[C@@H](C(=O)N[C@H](C(=O)NCC(=O)N[C@@H](C)C(=O)N[C@@H](CCC(=O)O)C(=O)N[C@@H](CO)C(N)=O)[C@@H](C)O)NC(=O)[C@H](CCCNC(=N)N)NC(=O)[C@H](Cc2c[nH]cn2)NC(=O)[C@H](CCC(=O)O)NC(=O)CNC(=O)[C@H](Cc2c[nH]c3ccccc23)NC(=O)[C@H](CC(=O)O)NC(=O)[C@H](CCC(N)=O)NC(=O)[C@H](Cc2ccc3ccccc3c2)NC1=O
B6: Compound 52 (peptide)
peptide: Ac-ICI[2Nal]QDWGEHRCTGAES-NH2
modifications: disulfide 2-12
SMILES: CC[C@H](C)[C@H](NC(C)=O)C(=O)N[C@H]1CSSC[C@@H](C(=O)N[C@H](C(=O)NCC(=O)N[C@@H](C)C(=O)N[C@@H](CCC(=O)O)C(=O)N[C@@H](CO)C(N)=O)[C@@H](C)O)NC(=O)[C@H](CCCNC(=N)N)NC(=O)[C@H](Cc2c[nH]cn2)NC(=O)[C@H](CCC(=O)O)NC(=O)CNC(=O)[C@H](Cc2c[nH]c3ccccc23)NC(=O)[C@H](CC(=O)O)NC(=O)[C@H](CCC(N)=O)NC(=O)[C@H](Cc2ccc3ccccc3c2)NC(=O)[C@H]([C@@H](C)CC)NC1=O
B7: Compound 66 (peptide)
peptide: Ac-YCIWQDWGEHRCTGAES-NH2
modifications: disulfide 2-12
SMILES: CC[C@H](C)[C@@H]1NC(=O)[C@@H](NC(=O)[C@H](Cc2ccc(O)cc2)NC(C)=O)CSSC[C@@H](C(=O)N[C@H](C(=O)NCC(=O)N[C@@H](C)C(=O)N[C@@H](CCC(=O)O)C(=O)N[C@@H](CO)C(N)=O)[C@@H](C)O)NC(=O)[C@H](CCCNC(=N)N)NC(=O)[C@H](Cc2c[nH]cn2)NC(=O)[C@H](CCC(=O)O)NC(=O)CNC(=O)[C@H](Cc2c[nH]c3ccccc23)NC(=O)[C@H](CC(=O)O)NC(=O)[C@H](CCC(N)=O)NC(=O)[C@H](Cc2c[nH]c3ccccc23)NC1=O
B8: Compound 69 (peptide)
peptide: Ac-YCI[Trp(1-Me)]QDWGEHRCTESGA-NH2
modifications: disulfide 2-12
SMILES: CC[C@H](C)[C@@H]1NC(=O)[C@@H](NC(=O)[C@H](Cc2ccc(O)cc2)NC(C)=O)CSSC[C@@H](C(=O)N[C@H](C(=O)N[C@@H](CCC(=O)O)C(=O)N[C@@H](CO)C(=O)NCC(=O)N[C@@H](C)C(N)=O)[C@@H](C)O)NC(=O)[C@H](CCCNC(=N)N)NC(=O)[C@H](Cc2c[nH]cn2)NC(=O)[C@H](CCC(=O)O)NC(=O)CNC(=O)[C@H](Cc2c[nH]c3ccccc23)NC(=O)[C@H](CC(=O)O)NC(=O)[C@H](CCC(N)=O)NC(=O)[C@H](Cc2cn(C)c3ccccc23)NC1=O
B9: Compound 68 (peptide)
peptide: Ac-YCI[Trp(1-Me)]QDWGEHRCTEAGS-NH2
modifications: disulfide 2-12
SMILES: CC[C@H](C)[C@@H]1NC(=O)[C@@H](NC(=O)[C@H](Cc2ccc(O)cc2)NC(C)=O)CSSC[C@@H](C(=O)N[C@H](C(=O)N[C@@H](CCC(=O)O)C(=O)N[C@@H](C)C(=O)NCC(=O)N[C@@H](CO)C(N)=O)[C@@H](C)O)NC(=O)[C@H](CCCNC(=N)N)NC(=O)[C@H](Cc2c[nH]cn2)NC(=O)[C@H](CCC(=O)O)NC(=O)CNC(=O)[C@H](Cc2c[nH]c3ccccc23)NC(=O)[C@H](CC(=O)O)NC(=O)[C@H](CCC(N)=O)NC(=O)[C@H](Cc2cn(C)c3ccccc23)NC1=O
B10: Compound 57 (peptide)
peptide: Ac-EGSAFCI[Trp(1-Me)]QDWGEHRCTE-NH2
modifications: disulfide 6-16
SMILES: CC[C@H](C)[C@@H]1NC(=O)[C@@H](NC(=O)[C@H](Cc2ccccc2)NC(=O)[C@H](C)NC(=O)[C@H](CO)NC(=O)CNC(=O)[C@H](CCC(=O)O)NC(C)=O)CSSC[C@@H](C(=O)N[C@H](C(=O)N[C@@H](CCC(=O)O)C(N)=O)[C@@H](C)O)NC(=O)[C@H](CCCNC(=N)N)NC(=O)[C@H](Cc2c[nH]cn2)NC(=O)[C@H](CCC(=O)O)NC(=O)CNC(=O)[C@H](Cc2c[nH]c3ccccc23)NC(=O)[C@H](CC(=O)O)NC(=O)[C@H](CCC(N)=O)NC(=O)[C@H](Cc2cn(C)c3ccccc23)NC1=O
B11: Compound 59 (peptide)
peptide: Ac-EGSAYCI[Trp(1-Me)]QDWGEHRCTE-NH2
modifications: disulfide 6-16
SMILES: CC[C@H](C)[C@@H]1NC(=O)[C@@H](NC(=O)[C@H](Cc2ccc(O)cc2)NC(=O)[C@H](C)NC(=O)[C@H](CO)NC(=O)CNC(=O)[C@H](CCC(=O)O)NC(C)=O)CSSC[C@@H](C(=O)N[C@H](C(=O)N[C@@H](CCC(=O)O)C(N)=O)[C@@H](C)O)NC(=O)[C@H](CCCNC(=N)N)NC(=O)[C@H](Cc2c[nH]cn2)NC(=O)[C@H](CCC(=O)O)NC(=O)CNC(=O)[C@H](Cc2c[nH]c3ccccc23)NC(=O)[C@H](CC(=O)O)NC(=O)[C@H](CCC(N)=O)NC(=O)[C@H](Cc2cn(C)c3ccccc23)NC1=O
B12: Compound 64 (peptide)
peptide: Ac-FCI[2Nal]QDWGEHRCTGAES-NH2
modifications: disulfide 2-12
SMILES: CC[C@H](C)[C@@H]1NC(=O)[C@@H](NC(=O)[C@H](Cc2ccccc2)NC(C)=O)CSSC[C@@H](C(=O)N[C@H](C(=O)NCC(=O)N[C@@H](C)C(=O)N[C@@H](CCC(=O)O)C(=O)N[C@@H](CO)C(N)=O)[C@@H](C)O)NC(=O)[C@H](CCCNC(=N)N)NC(=O)[C@H](Cc2c[nH]cn2)NC(=O)[C@H](CCC(=O)O)NC(=O)CNC(=O)[C@H](Cc2c[nH]c3ccccc23)NC(=O)[C@H](CC(=O)O)NC(=O)[C@H](CCC(N)=O)NC(=O)[C@H](Cc2ccc3ccccc3c2)NC1=O
B13: Compound 58 (peptide)
peptide: Ac-EGSAFCI[Trp(1-Me)]QDWGEHRCEGE-NH2
modifications: disulfide 6-16
SMILES: CC[C@H](C)[C@@H]1NC(=O)[C@@H](NC(=O)[C@H](Cc2ccccc2)NC(=O)[C@H](C)NC(=O)[C@H](CO)NC(=O)CNC(=O)[C@H](CCC(=O)O)NC(C)=O)CSSC[C@@H](C(=O)N[C@@H](CCC(=O)O)C(=O)NCC(=O)N[C@@H](CCC(=O)O)C(N)=O)NC(=O)[C@H](CCCNC(=N)N)NC(=O)[C@H](Cc2c[nH]cn2)NC(=O)[C@H](CCC(=O)O)NC(=O)CNC(=O)[C@H](Cc2c[nH]c3ccccc23)NC(=O)[C@H](CC(=O)O)NC(=O)[C@H](CCC(N)=O)NC(=O)[C@H](Cc2cn(C)c3ccccc23)NC1=O

Positions of bridges follow the written chain, without caps; N, C: chain ends. Non-standard residues stand in square brackets, D forms with d. Trp(1-Me) = Cn1cc(C[C@H](N)C(=O)O)c2ccccc21; 1Nal = N[C@@H](Cc1cccc2ccccc12)C(=O)O; 2Nal = N[C@@H](Cc1ccc2ccccc2c1)C(=O)O

The test deals with Human C3 (Complement tech cat #A113c) (human, UniProt P01024 23-1663). The experiment in a line: cell-based or functional assay.
Human C3 (Complement tech cat #A113c), sequence (P01024 23-1663 limits assumed): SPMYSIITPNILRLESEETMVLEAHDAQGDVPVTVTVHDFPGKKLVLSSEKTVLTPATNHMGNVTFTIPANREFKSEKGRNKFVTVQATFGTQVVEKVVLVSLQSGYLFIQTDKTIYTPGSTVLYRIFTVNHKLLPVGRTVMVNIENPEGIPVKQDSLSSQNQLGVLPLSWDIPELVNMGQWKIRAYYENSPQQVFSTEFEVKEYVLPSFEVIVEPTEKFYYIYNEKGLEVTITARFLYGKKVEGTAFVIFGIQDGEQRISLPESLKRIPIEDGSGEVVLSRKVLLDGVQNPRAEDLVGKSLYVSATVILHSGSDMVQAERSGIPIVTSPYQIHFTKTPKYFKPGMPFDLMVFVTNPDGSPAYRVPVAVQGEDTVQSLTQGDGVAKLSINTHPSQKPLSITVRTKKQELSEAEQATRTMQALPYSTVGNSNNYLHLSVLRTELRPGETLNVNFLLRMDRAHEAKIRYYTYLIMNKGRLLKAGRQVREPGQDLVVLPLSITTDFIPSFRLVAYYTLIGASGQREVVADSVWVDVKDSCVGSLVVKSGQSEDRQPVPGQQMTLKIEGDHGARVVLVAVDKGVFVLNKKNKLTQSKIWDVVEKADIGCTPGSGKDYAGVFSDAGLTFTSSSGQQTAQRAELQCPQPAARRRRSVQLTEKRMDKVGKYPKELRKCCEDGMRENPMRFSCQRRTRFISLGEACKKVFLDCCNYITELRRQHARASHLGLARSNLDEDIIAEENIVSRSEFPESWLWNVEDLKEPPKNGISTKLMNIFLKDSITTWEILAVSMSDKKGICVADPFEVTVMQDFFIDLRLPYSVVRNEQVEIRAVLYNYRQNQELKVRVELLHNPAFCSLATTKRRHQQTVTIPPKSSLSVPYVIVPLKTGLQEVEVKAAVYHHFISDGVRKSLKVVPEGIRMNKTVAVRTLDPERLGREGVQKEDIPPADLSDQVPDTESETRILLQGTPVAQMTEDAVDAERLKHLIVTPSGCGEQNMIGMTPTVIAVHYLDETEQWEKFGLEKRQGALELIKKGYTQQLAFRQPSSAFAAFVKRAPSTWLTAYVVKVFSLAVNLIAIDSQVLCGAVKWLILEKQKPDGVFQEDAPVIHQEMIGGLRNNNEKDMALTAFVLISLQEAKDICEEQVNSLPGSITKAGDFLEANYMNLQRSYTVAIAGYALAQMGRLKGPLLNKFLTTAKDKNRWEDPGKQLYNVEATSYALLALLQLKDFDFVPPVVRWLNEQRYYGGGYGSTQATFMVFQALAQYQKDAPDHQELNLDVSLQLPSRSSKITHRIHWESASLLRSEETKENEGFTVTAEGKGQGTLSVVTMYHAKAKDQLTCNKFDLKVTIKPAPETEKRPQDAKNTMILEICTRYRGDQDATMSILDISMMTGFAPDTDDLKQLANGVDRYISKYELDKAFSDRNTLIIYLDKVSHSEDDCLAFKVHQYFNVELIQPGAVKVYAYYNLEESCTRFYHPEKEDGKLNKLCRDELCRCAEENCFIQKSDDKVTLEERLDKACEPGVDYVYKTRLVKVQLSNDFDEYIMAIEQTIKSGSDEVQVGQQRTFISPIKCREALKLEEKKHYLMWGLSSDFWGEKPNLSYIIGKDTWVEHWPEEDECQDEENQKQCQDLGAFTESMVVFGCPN
B1: the “inhibition of hemolysis IC50” value is under 100 nM. For the molecule B2, the “inhibition of hemolysis IC50” value is under 100 nM. The value for B3 was under 100 nM; that for B4 was under 250 nM; that for B5 was under 100 nM. As for B6, the figure is under 100 nM; as for B7, under 100 nM; as for B8, under 100 nM. On to B9, for which the “inhibition of hemolysis IC50” value was under 100 nM.

With B10, the “inhibition of hemolysis IC50” value is under 100 nM. The value for B11 was under 100 nM; that for B12 was under 100 nM; that for B13 was under 100 nM.
